Measurements reported in patent US9028816 (Ablynx, dated 2015).

Tests used:
collagen type I = biological target: T1, collagen type I; test: ELISA: collagen type I coated at 25 µg/ml, purified VHH in twofold dilutions, detection as in Example 7 (Example 34) [collagen type I]
T1 construct: coated on the microtiter plate

[1] = biological target: human serum albumin (HSA) (human, UniProt P02768 25-609); test: phage on blotted plasma (1/10)
pig serum albumin = pig serum albumin (pig, UniProt P08835 25-607); test: phage on blotted plasma (1/10)
pig serum albumin, sequence (P08835 25-607 limits assumed): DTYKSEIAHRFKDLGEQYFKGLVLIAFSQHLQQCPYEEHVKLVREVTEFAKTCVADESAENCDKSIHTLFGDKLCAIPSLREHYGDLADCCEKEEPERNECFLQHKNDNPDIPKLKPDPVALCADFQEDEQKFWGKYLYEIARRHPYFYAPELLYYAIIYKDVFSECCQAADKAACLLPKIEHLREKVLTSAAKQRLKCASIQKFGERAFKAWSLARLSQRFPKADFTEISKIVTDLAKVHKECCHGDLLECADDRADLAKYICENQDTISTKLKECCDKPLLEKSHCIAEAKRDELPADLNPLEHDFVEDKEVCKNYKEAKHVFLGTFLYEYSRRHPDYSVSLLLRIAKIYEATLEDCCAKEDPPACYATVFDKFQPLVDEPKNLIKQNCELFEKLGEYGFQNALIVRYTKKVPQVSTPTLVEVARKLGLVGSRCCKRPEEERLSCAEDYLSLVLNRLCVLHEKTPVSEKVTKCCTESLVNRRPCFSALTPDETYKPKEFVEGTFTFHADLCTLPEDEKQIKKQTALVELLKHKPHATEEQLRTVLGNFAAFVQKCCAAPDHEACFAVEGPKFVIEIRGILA

[2] = biological target: T2, mouse serum albumin (MSA) (mouse, UniProt P07724 25-608); test: ELISA: MSA coated at 5 µg/ml, purified nanobody in 1/3 dilutions, detection with rabbit anti-nanobody serum and anti-rabbit alkaline phosphatase, PNPP (Example 50)
T2 construct: also called mouse albumin
T2 sequence (P07724 25-608 limits assumed): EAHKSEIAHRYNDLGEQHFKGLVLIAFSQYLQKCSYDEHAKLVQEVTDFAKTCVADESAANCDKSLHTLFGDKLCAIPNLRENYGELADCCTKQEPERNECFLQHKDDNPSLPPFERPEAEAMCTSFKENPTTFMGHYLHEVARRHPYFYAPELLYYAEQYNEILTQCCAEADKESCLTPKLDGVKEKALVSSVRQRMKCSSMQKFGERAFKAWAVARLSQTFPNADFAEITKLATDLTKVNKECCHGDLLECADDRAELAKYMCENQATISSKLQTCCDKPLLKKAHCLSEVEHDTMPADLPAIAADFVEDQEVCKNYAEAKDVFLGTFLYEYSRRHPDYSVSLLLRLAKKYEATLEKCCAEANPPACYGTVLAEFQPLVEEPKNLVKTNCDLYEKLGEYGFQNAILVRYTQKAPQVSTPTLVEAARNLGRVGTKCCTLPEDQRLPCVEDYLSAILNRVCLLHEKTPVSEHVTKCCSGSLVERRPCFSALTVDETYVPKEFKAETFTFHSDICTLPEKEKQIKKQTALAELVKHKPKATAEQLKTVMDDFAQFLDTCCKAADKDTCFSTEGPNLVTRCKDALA

[3] = biological target: T3, human von Willebrand factor (vWF) (human, UniProt P04275 764-2813); test: ELISA: coated vWF, purified vWF A1-specific VHH, as in Example 7 (Example 20)
T3 construct: also called Human vWF

B1: 3L-41 (VHH)
VHH: QVQLQDSGGGLVQAGGSLRLSCAASGRTFRRYAMGWYRQAPGKQRVLVAAITSNGRPSVADSVKGRFTISSDTAKNTVYLQMNSLKPEDTALYYCTLYNTSADYYNQSPSSWGQGTQVTVLS
Collagen type I
  EC50 (read off the curve): ~10 nM

B2: 3P1-31 (VHH)
VHH: QVQLQESGGGLVQAGGSLRLSCAASGRTFRRYAMGWYRQAPGKQRELVAAITSGGRTSVADTVKGRFTISSDNAKNTVYLQMNSLKPEDAAVYYCTLYNSTTNYYNQSPSSWGQGTQVTVSS
Collagen type I
  EC50 (read off the curve): ~200 nM

B3: MSA24 (VHH)
VHH: QVQLQESGGGLVQPGNSLRLSCAASGFTFRNFGMSWVRQAPGKEPEWVSSISGSGSNTIYADSVKDRFTISRDNAKSTLYLQMNSLKPEDTAVYYCTIGGSLSRSSQGTQVTVSS
[1]
  binding result: binds
Pig serum albumin
  binding result: binds
[2]
  EC50 (read off the curve): ~0.6 nM

B4: Z29 (VHH)
VHH: QVQLQESGGGSVQAGDSLTLSCAASGRTFSMHAMGWFRQAPGKEREFVAAISPSAFTEYADSLKGRFTVSRDNAKKLVWLQMNGLKPEDTAAYYCAARRGAFTATTAPLYDYWGQGTQVTVSS
[3]
  EC50 (read off the curve): ~70 nM
